Test results published in the supplement of paper PMC10567573.

B1: TMEM175 (parent)
chain: SCTIIFLASIFQLAMWTTALLHQA
B2: ADD1 (parent)
chain: GEGTGSPPKWQIGEQEFEALMRML

Variants of: B1
Test: protein stability index of a GFP-peptide fusion (GPS, HEK-293T) (PSI 1-6); higher = more stable
Conditions: c terminus: a fixed tail appended
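Further: lentivirally expressed fusions sorted by FACS into six bins by GFP to DsRed ratio, PSI derived from sequencing read proportions per bin multiplied by bin number.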

Protein stability index of substitutions, site by site:
S1: N 2.02; L 2.96; M 2.14; R 4.91; C 3.31; E 1.31; K 2.29; I 3.24; A 2.72; G 2.3; H 2.8; Q 1.64; W 2.14; D 2.62; T 2.86; Y 1.75
C2: F 2.66; K 3.34; E 2.64; Y 2.89; H 3.33; G 3.98; L 2.87; V 3.64; Q 2.54; A 3.34; N 4.36; W 2.26; R 2.3; P 1.95; I 1.73; M 2.59; D 3.24
T3: F 2.75; E 1.72; D 2.86; I 3.33; H 2.04; K 2.84; A 3.36

Variants of: B2
Test: as above
Conditions: c terminus: a fixed tail appended

Protein stability index: each site, then its substitutions
G13: K 3.21; R 2.99; H 3.29; P 3.74; L 2.84; N 2.78; T 2.74; Y 2.66; Q 3.58; C 3.22; E 4.05; I 2.92; A 3.85; S 3.22; M 2.94; F 2.69; D 3.65; V 2.5; W 3.37
I12: G 4.08; R 3.12; M 3.38; W 2.81; F 3.09; E 4.45; Q 4.11; S 3.83; T 3.7; P 3.72; H 3.75; L 3.06; C 3.27; K 3.03; A 3.9; V 3.22; D 4.45; Y 3.69; N 3.55
M23: T 3.38; G 4.56; F 2.52; Q 4.44; P 4.76; S 4.68; K 4.49; I 2.16; R 4.26; Y 2.96; C 3.74; D 5.08; V 3.43; E 5.04; N 4.8; A 3.58; H 3.1; L 2.74
M21: Q 3.83; E 4.16; H 4.16; W 2.83; I 2.99; K 3.49; A 3.35; P 4.2; Y 3.09; N 3.71; G 3.87; C 3.18; V 3.11; F 3.47; R 3.18; S 3.66; T 3.13; D 4.41; L 2.82
E18: V 2.3; P 3.39; T 3; Y 2.08; Q 3.22; K 2.9; A 2.76; W 1.85; G 2.69; L 2.41; C 2.82; I 2.37; H 2.1; N 2.47; R 2.07; M 2.95; D 3.69; F 1.93; S 3.17
W10: V 3.67; Y 3.14; H 3.99; M 3.27; A 3.71; N 4.19; S 4.2; Q 3.5; C 2.93; R 4.22; P 3.81; K 3.57; I 2.86; F 3.26; L 3.06; E 4.28; G 3.97; T 3.42; D 4.58
L20: R 4.19; V 3.48; E 4.77; G 4.67; F 3.07; Q 5.25; S 5.12; K 4.4; T 3.63; H 4.97; M 3.64; A 4.61; D 4.8; I 2.46; C 4.05; N 4.89; W 3.61; Y 3.97; P 4.45
R22: S 3.44; P 3.75; G 3.09; C 2.21; M 2.55; V 2.14; H 2.92; W 2.2; E 3.39; N 3.62; F 2.79; I 2.49; T 3; Q 3.3; L 2.09; A 3.18; Y 2.37; D 3.61
Q15: N 3.03; G 2.99; R 2.59; S 3.13; K 2.47; P 3.51; C 2.9; L 2.22; A 2.75; W 1.86; E 3.33; I 2.49; M 2.6; T 3.09; F 2.33; Y 2.25; D 3.48; V 2.39; H 2.83
A19: D 4.11; T 3.25; C 3.43; H 3.65; Y 3.09; W 2.31; I 2.39; E 4.04; S 2.94; F 2.67; V 2.97; N 4.03; P 3.25; G 3.22; R 3.59; Q 3.65; L 2.85; K 2.69; M 2.7
L24: M 3.89; N 4.13; R 4.34; G 4.1; T 3.8; K 4.67; E 4.98; P 4.38; Y 2.68; I 3.52; D 4.89; A 3.83; F 3.42; Q 4.74; V 3.06; W 3.57; H 4.32; S 3.92; C 3.52
F17: G 4.19; V 3.84; D 4.82; I 3.15; T 3.75; N 3.55; H 4.32; E 4.52; Y 3.94; W 3.6; L 3.37; Q 4.76; C 3.33; P 4.79; R 3.83; S 4.28; A 3.92; K 3.88; M 3.52
E14: I 3.39; G 2.92; R 2.6; P 2.93; T 2.79; W 1.97; V 2.29; F 2.1; H 3.09; Y 1.8; S 2.94; D 3.17; C 2; Q 3.19; N 2.96; A 3.16; M 2.72; K 3.61; L 2.3
E16: W 2.54; I 1.31; V 1.6; H 2.8; N 3.1; Y 1.71; D 3.52; G 2.5; A 2.33; K 2.53; T 2.4; L 1.4; S 3.06; R 2.51; P 2.61; M 1.74; F 1.59; Q 2.37; C 2.75
K9: R 3.07; T 2.95; N 3.53; W 2.63; L 2.34; V 2.49; Q 3.25; Y 3.43; M 2.93; S 3.48; P 3.42
Q11: D 3.82; I 2.97; V 2.86; M 3.54; K 4.08; C 2.76; P 3.33; H 3.23; L 2.98; T 3.51; Y 2.57; F 3.22; G 2.66; A 2.86; R 3.46; W 3.04; S 3.42; N 3.53; E 3.24
